In the test the target is T1, HLA-A*02:01 (Homo sapiens, UniProt P04439, D140Y/D185E/D98H/E176V/E277Q/G131W/G231S/I119V/I121R/I166T/I218V/L300P/L318F/N151K/N90K/P208A/P217A/Q86G/Q94H/R138H/R169H/T345S).
T1 construct: made in house
Briefly: MHC binding assay: UV-ligand exchange with β2m ELISA (peptide exchange yield). Conditions: binding to HLA-A*02:01 evaluated by peptide exchange yield (UV-ligand exchange, β2m ELISA). The text has this: Candidate peptides for T cell based therapies according to the present invention were further tested for their MHC binding capacity (affinity). The individual peptide-MHC complexes were produced by UV-ligand exchange, where a UV-sensitive peptide is cleaved upon UV-irradiation, and exchanged with the peptide of interest as analyzed. Only peptide candidates that can effectively bind and stabilize the peptide-receptive MHC molecules prevent dissociation of the MHC complexes. To determine the yield of the exchange reaction, an ELISA was performed based on the detection of the light chain (β2m) of stabilized MHC complexes. The assay was performed as generally described in Rodenko et al. (Rodenko et al., 2006).
96 well MAXISorp plates (NUNC) were coated over night with 2 ug/ml streptavidin in PBS at room temperature, washed 4× and blocked for 1 h at 37° C. in 2% BSA containing blocking buffer. Refolded HLA-A*02:01/MLA-001 monomers served as standards, covering the range of 15-500 ng/ml. Peptide-MHC monomers of the UV-exchange reaction were diluted 100 fold in blocking buffer. Samples were incubated for 1 h at 37° C., washed four times, incubated with 2 ug/ml HRP conjugated anti-β2m for 1 h at 37° C., washed again and detected with TMB solution that is stopped with […]. Absorption was measured at 450 nm. Candidate peptides that show a high exchange yield (preferably higher than 50%, most preferred higher than 75%) are generally preferred for a generation and production of antibodies or fragments thereof, and/or T cell receptors or fragments thereof, as they show sufficient avidity to the MHC molecules and prevent dissociation of the MHC complexes.
In general terms: ELISA stands for enzyme-linked immunosorbent assay.
In the case of “281 (LLLESDPKVYSL; listed as Homo sapiens) [compound 281]”, the Peptide exchange result is on record as “++ (≧20% = ++)”.
The entry for “178 (SLVSWQLLL; listed as Homo sapiens) [compound 178]” is “++++ (≧75% = ++++)”; for “265 (FLLDKPQDLSI; listed as Homo sapiens) [compound 265]” it is “+++ (≧50 = +++)”; for “54 (YLVPGLVAA; listed as Homo sapiens) [compound 54]” it is “+++ (≧50 = +++)”.
Take “212 (MTLSEIHAV; listed as Homo sapiens) [compound 212]”: the Peptide exchange entry is reported as “++ (≧20% = ++)”.
As to “19 (KVFELDLVTL; listed as Homo sapiens) [compound 19]”, the Peptide exchange entry was “++ (≧20% = ++)”.
Then “171 (LLLLDVPTA; listed as Homo sapiens) [compound 171]”, with “++ (≧20% = ++)”.
Then “245 (ALLEEEEGV; listed as Homo sapiens) [compound 245]”, with “++ (≧20% = ++)”; and “125 (AALEVLAEV; listed as Homo sapiens) [compound 125]”, with “+++ (≧50 = +++)”; and “34 (TLNTLDINL; listed as Homo sapiens) [compound 34]”, with “+++ (≧50 = +++)”.
Then “93 (RLYGYFHDA; listed as Homo sapiens) [compound 93]”, with “++ (≧20% = ++)”.
For the substance “219 (GVVPTIQKV; listed as Homo sapiens) [compound 219]”, the Peptide exchange entry was “++ (≧20% = ++)”.
In the case of “207 (KLFETVEEL; listed as Homo sapiens) [compound 207]”, the Peptide exchange entry is “+++ (≧50 = +++)”.
As for “158 (YLDPLWHQL; listed as Homo sapiens) [compound 158]”, the Peptide exchange result is “+++ (≧50 = +++)”.
In the case of “204 (SEWGSPHAAVP; listed as Homo sapiens) [compound 204]”, the Peptide exchange result is listed as “+++ (≧50 = +++)”.
Then “277 (KLQEELNKV; listed as Homo sapiens) [compound 277]”, with “+++ (≧50 = +++)”; and “143 (MLWESIMRV; listed as Homo sapiens) [compound 143]”, with “+++ (≧50 = +++)”; and “284 (KLMDPGSLPPL; listed as Homo sapiens) [compound 284]”, with “++ (≧20% = ++)”.
Turning to “12 (RLLDPKTIFL; listed as Homo sapiens) [compound 12]”, the Peptide exchange entry was “+++ (≧50 = +++)”.
Then “94 (YLDEVAFML; listed as Homo sapiens) [compound 94]”, with “+++ (≧50 = +++)”.
The entry for “38 (VLQQESNFL; listed as Homo sapiens) [compound 38]” is “++ (≧20% = ++)”; for “22 (LMYPYIYHV; listed as Homo sapiens) [compound 22]” it is “+++ (≧50 = +++)”; for “227 (SEMEELPSV; listed as Homo sapiens) [compound 227]” it is “+ (≧10% = +)”.
For “198 (ILTNKVVSV; listed as Homo sapiens) [compound 198]”, the Peptide exchange result is given as “++ (≧20% = ++)”.
Take “110 (QIQGQVSEV; listed as Homo sapiens) [compound 110]”: the Peptide exchange entry is reported as “++ (≧20% = ++)”.
Consider “206 (GLDAFRIFL; listed as Homo sapiens) [compound 206]”, for which the Peptide exchange result is given as “++++ (≧75% = ++++)”.
Then “272 (FVMEGEPPKL; listed as Homo sapiens) [compound 272]”, with “++ (≧20% = ++)”.
With “285 (MLLDTVQKV; listed as Homo sapiens) [compound 285]”, the Peptide exchange result was “+++ (≧50 = +++)”.
As for “175 (SLLDLVQSL; listed as Homo sapiens) [compound 175]”, the Peptide exchange result is reported as “+++ (≧50 = +++)”.
Then “28 (IKVTDPQLLEL; listed as Homo sapiens) [compound 28]”, with “++ (≧20% = ++)”; and “144 (FLISQTPLL; listed as Homo sapiens) [compound 144]”, with “+++ (≧50 = +++)”.
Take “161 (NLLDENVCL; listed as Homo sapiens) [compound 161]”: the Peptide exchange entry is reported as “++++ (≧75% = ++++)”.
Then “159 (QLGPVPVTI; listed as Homo sapiens) [compound 159]”, with “+++ (≧50 = +++)”; and “69 (LKVLKADVVL; listed as Homo sapiens) [compound 69]”, with “++ (≧20% = ++)”.
For the substance “145 (ALEEKLENV; listed as Homo sapiens) [compound 145]”, the Peptide exchange result is “+++ (≧50 = +++)”.
With “88 (LLLPLELSLA; listed as Homo sapiens) [compound 88]”, the Peptide exchange entry is recorded as “+++ (≧50 = +++)”.
Then “75 (ALLDGALQL; listed as Homo sapiens) [compound 75]”, with “+++ (≧50 = +++)”.
The entry for “141 (NIDINNNEL; listed as Homo sapiens) [compound 141]” is “++ (≧20% = ++)”; for “231 (LLDDIFIRL; listed as Homo sapiens) [compound 231]” it is “+++ (≧50 = +++)”.
As to “80 (VLTGQVHEL; listed as Homo sapiens) [compound 80]”, the Peptide exchange result is listed as “+++ (≧50 = +++)”.
Then “5 (GLVDIMVHL; listed as Homo sapiens) [compound 5]”, with “+++ (≧50 = +++)”.
The entry for “250 (LMQDSRLYL; listed as Homo sapiens) [compound 250]” is “+++ (≧50 = +++)”; for “106 (VLLGSVVIFA; listed as Homo sapiens) [compound 106]” it is “++ (≧20% = ++)”.
The entry for “149 (NMADGQLHQV; listed as Homo sapiens) [compound 149]” is “++ (≧20% = ++)”.
For “103 (YLADTVQKL; listed as Homo sapiens) [compound 103]”, the Peptide exchange entry is “++ (≧20% = ++)”.
With “140 (FLDSQITTV; listed as Homo sapiens) [compound 140]”, the Peptide exchange result is “+++ (≧50 = +++)”.
Then “224 (LLFDWSGTGRADA; listed as Homo sapiens) [compound 224]”, with “+++ (≧50 = +++)”; and “225 (FLPQPVPLSV; listed as Homo sapiens) [compound 225]”, with “+++ (≧50 = +++)”; and “90 (AILNVDEKNQV; listed as Homo sapiens) [compound 90]”, with “++ (≧20% = ++)”.
On to “258 (QLVQRVASV; listed as Homo sapiens) [compound 258]”, for which the Peptide exchange result is reported as “++ (≧20% = ++)”.
The entry for “244 (NVAEIVIHI; listed as Homo sapiens) [compound 244]” is “+++ (≧50 = +++)”; for “122 (SIIDTELKV; listed as Homo sapiens) [compound 122]” it is “+++ (≧50 = +++)”; for “123 (QTAPEEAFIKL; listed as Homo sapiens) [compound 123]” it is “+ (≧10% = +)”.
Take “100 (ALQSFEFRV; listed as Homo sapiens) [compound 100]”: the Peptide exchange result is “+++ (≧50 = +++)”.
In the case of “146 (VVAAHLAGA; listed as Homo sapiens) [compound 146]”, the Peptide exchange result is on record as “++ (≧20% = ++)”.
On to “57 (TLYPGRFDYV; listed as Homo sapiens) [compound 57]”, for which the Peptide exchange entry is “++ (≧20% = ++)”.
With “109 (ILGSFELQL; listed as Homo sapiens) [compound 109]”, the Peptide exchange result is on record as “+++ (≧50 = +++)”.
Then “74 (GLAFLPASV; listed as Homo sapiens) [compound 74]”, with “++ (≧20% = ++)”; and “168 (VIFEGEPMYL; listed as Homo sapiens) [compound 168]”, with “+++ (≧50 = +++)”.
Take “3 (RVIDDSLVVGV; listed as Homo sapiens) [compound 3]”: the Peptide exchange entry was “+++ (≧50 = +++)”.
Then “76 (FTAEFLEKV; listed as Homo sapiens) [compound 76]”, with “+++ (≧50 = +++)”; and “30 (IITEVITRL; listed as Homo sapiens) [compound 30]”, with “+++ (≧50 = +++)”.
Consider “18 (KTASINQNV; listed as Homo sapiens) [compound 18]”, for which the Peptide exchange result was “++ (≧20% = ++)”.
The entry for “132 (ALLNNVIEV; listed as Homo sapiens) [compound 132]” is “+++ (≧50 = +++)”; for “173 (RLIDIYKNV; listed as Homo sapiens) [compound 173]” it is “+++ (≧50 = +++)”.
The entry for “194 (KLLEEVQLL; listed as Homo sapiens) [compound 194]” is “++ (≧20% = ++)”.
